The values below come from patent publication US20150267232A1, “IN VIVO AND IN VITRO CARBENE INSERTION AND NITRENE TRANSFER REACTIONS CATALYZED BY HEME ENZYMES” (California Institute of Technology, priority 2012, published 2015).

A short description of data set [1]: P450BM3 compilation plate screen (GC, cyclopropane peaks). The class given is biochemical. Particulars: P450BM3 variants.
Data set [2] is described as follows: N—H insertion, aniline with ethyl diazo acetate (EDA). The class given is biochemical. An excerpt: We have found a variety of P450 variants to be general catalysts for carbenoid N—H insertion. We combined aniline with EDA in the presence of a reductant (Na2S2O4) under argon atmosphere and tested the mixture with seven P450BM3 variants previously identified as competent catalysts for cyclopropanation (Coelho, P. et al., Science. 2013, 339, 307-310). In choosing this set of P450s, we hypothesized that cyclopropanation activity could correlate with ability to generate the iron-carbenoid intermediate that is also necessary for N—H insertion. Whereas wild type BM3 (WT-BM3 (SEQ ID NO:1), Table 20, entry 1) provided only trace amounts of the desired product (4.3), a few variants gave 4.3 in good yields after 12 h at room temperature. In particular, variant H2-5-F10 which is derived from a thermostable P450BM3 lineage (Lewis, J. C. et al. ChemBioChem, 2010, 11, 2502-2505) and contains 15 mutation from WT-BM3 (SEQ ID NO:1), formed 4.3 in 47% yield and 473 turnovers (TTN) using 0.1% protein relative to EDA (entry 7). […] In contrast, when 1 mol % of the isolated hemin prosthetic group was used as catalyst, the single and double insertion products were produced in a 3.5 to 1 ratio (with a total product yield of 51%).
A representative procedure for P450-catalyzed N—H insertion is as follows. To an unsealed crimp vial, 60 μL of a P450 solution (67 or 133 μM) was added and the vial was sealed. A 12.5 mM solution of sodium dithionite in phosphate buffer (0.1 M, pH=8.0) was degassed by bubbling with argon in a 6 mL crimp-sealed vial. The headspace of the 2 mL vials containing P450 solution were flushed with argon (no bubbling). The buffer/dithionite solution (360 μL) was then added to each reaction vial via syringe, and the gas lines were disconnected from the vials. 10 μL of an 800 mM stock of aniline was added via a glass syringe, followed by 10 μL of a 340 mM stock of EDA (both stocks in MeOH). The reaction vials were then placed in a tray on a plate shaker and left to shake at 40 rpm. The final concentrations of the reagents were typically: 20 mM aniline, 8.5 mM EDA, 10 mM Na2S2O4, and 10 or 20 μM P450. After 12 h at 25° C., the vials were removed from the shaker and uncapped and 1 mL of cyclohexane was added, followed by 20 μL of a 20 mM solution of phenethyl alcohol (internal standard). The mixture was transferred to a 1.5 mL Eppendorf tube and vortexed and centrifuged (13,000×g, 1 min.). The organic layer was dried over sodium sulfate if necessary then analyzed by GC, with comparison to an authentically prepared sample that has been verified by proton NMR ([…], Varian, CDCl3).
Substitution is well-tolerated on the aniline partner on both the ortho and para positions. Reactions were analyzed by a Shimadzu GC with FID detector and J&W HP-5 column (30 m×0.32 mm, 0.25 μm film) and calibrated to an independently prepared sample of each product using phenethyl alcohol as internal standard. Reaction of aniline and EDA was also performed in milligram scale without any organic cosolvent to provide 4.3 in 65% isolated yield.
Calibration curves were plotted as follows. Yields of N—H insertion products were determined using calibration curves made with independently synthesized standards that have been verified by proton NMR, with comparison to known literature data (Baumann, L. K. et al. Organometallics. 2007, 26, 3995-4002; Anding, B. J. et al. Organometallics. 2013, 32, 2599-2607). Two stock solutions of product were made at 160 mM and 40 mM. To four or five samples containing 380 μL of buffer, product was added from either of the stock solutions such at a final concentration of 0.5-8.0 mM in 400 μL was obtained. 20 μL of internal standard was added to each eppendorf tube, then 1 mL of cyclohexane was added and the tubes were vortexed and centrifuged (13,000 ×g, 30 seconds). The organic layer was then analyzed by GC. The ratio of the areas under the internal standard and product peaks were plotted against the concentration for each solution. […]

Data set [3] in a line: N—H insertion, aniline with ethyl 2-diazopropanoate. The conditions noted are these: protein 20 μM, diazo 10.0 mM, aniline 20 mM. The class given is biochemical. The procedure: The reactions shown in FIG. 37A were carried out with protein (20 μM), ethyl diazo acetate (8.5 mM), aniline (20 mM) and Na2S2O4 (10 mM) in phosphate buffer (pH 8) and allowed to shake at room temperature for 12 h. Yields are reported in parenthesis and TTN are presented in italics. Yields were determined by GC calibrated for each product. An isolated yield of 65% for compound 4.3 was determined for the milligram scale reaction run as follows: 25 mM EDA, 25 mM aniline, 25 μM protein, and 25 mM Na2S2O4. The reaction producing compounds 4.5 and 4.10 were carried out with protein (20 μM), ethyl diazo acetate (10.0 mM), aniline (20 mM) and Na2S2O4 (10 mM).
While substituted diazo compounds can also be used for insertion, the yield from N—H insertion of ethyl 2-diazopropanoate into aniline is only 26% (product 4.5). To improve efficiency of this reaction, we examined the reaction of ethyl 2-diazopropanoate with a variety of axial mutants. In particular, the axial mutant WT-AxA provided the desired product in 83% yield, compared to 8% yield and 1.7% yield with axial mutant WT-AxS and WT-BM3 heme domain, respectively (FIG. 37B).
(§1) The reactions shown in FIG. 37B were carried out with 10 μM catalyst loading, 20 mM aniline, 10 mM Na2S2O4 and 10 mM ethyl 2-diazopropanoate as described above. For the final entry in FIG. 37B, whole cells expressing BM3-CIS-T438S at 2.5 μM were used. See, U.S. Provisional Application No. 61/711,640 for the procedure for catalysis with whole cells.

A short description of data set [4]: N—H insertion, diethyl amine and 4.11 (lidocaine synthesis). The class given is biochemical. The conditions noted are these: GC-MS. The procedure: Diazo amides are also competent substrates for this reaction, and alpha-amino amides like 4.10 (FIG. 37A) can be produced in moderate yields. This transformation is particularly valuable because diazo amides can give rise to important building block compounds like diamines Additionally, this transformation can be used for the synthesis of lidocaine, which we were able to prepare using diethyl amine and 4.11 in the presence of H2-5-F10 (Scheme 1). […] (hold 1 min), 100-140° C. (6° C./min), 140-260° C. (20° C./min), 260° C. (hold 3 min)

The nature of data set [5]: N—H insertion, aniline with ethyl 2-diazopropanoate, whole cells. The class given is cell-based. The conditions noted are these: whole cells expressing enzyme at 2.5 μM. The procedure:
as §1

Where a chain is given by its changes, count along the chain named. Names may count otherwise.

B1: H2-5-F10: 9-10A TS + F87V, L75A, I263A, T268A, L437A (protein, listed as Bacillus megaterium)
chain: TIKEMPQPKTFGELKNLPLLNTDKPVQALMKIADELGEIFKFEAPGRVTRYLSSQRLIKEACDESRFDKNLSQAAKFARDFAGDGLVTSWTHEKNWKKAHNILLPSFSQQAMKGYHAMMVDIAVQLVQKWERLNADEHIEVSEDMTRLTLDTIGLCGFNYRFNSFYRDQPHPFIISMVRALDEVMNKLQRANPDDPAYDENKRQFQEDIKVMNDLVDKIIADRKARGEQSDDLLTQMLNGKDPETGEPLDDGNIRYQIITFLAAGHEATSGLLSFALYFLVKNPHVLQKVAEEAARVLVDPVPSYKQVKQLKYVGMVLNEALRLWPTAPAFSLYAKEDTVLGGEYPLEKGDEVMVLIPQLHRDKTVWGDDVEEFRPERFENPSAIPQHAFKPFGNGQRACIGQQFALHEATLVLGMMLKHFDFEDHTNYELDIKETATLKPKGFVVKAKSKKIPLGGIPSPSTEQSAKKVRKKAENAHNTPLLVLYGSNMGTAEGTARDLADIAMSKGFAPQVATLDSHAGNLPREGAVLIVTASYNGHPPDNAKQFVDWLDQASADEVKGVRYSVFGCGDKNWATTYQKVPAFIDETLAAKGAENIADRGEADASDDFEGTYEEWREHMWSDVAAYFNLDIENSEDNKSTLSLQFVDSAADMPLAKMHGAFSTNVVASKELQQPGSARSTRHLEIELPKEASYQEGDHLGVIPRNYEGIVNRVTARFGLDASQQIRLEAEEEKLAHLPLAKTVSVEELLQYVELQDPVTRTQLRAMAAKTVCPPHKVELEALLEKQAYKEQVLAKRLTMLELLEKYPACEMKFSEFIALLPSIRPRYYSISSSPRVDEKQASITVSVVSGEAWSGYGEYKGIASNYLAELQEGDTITCFISTPQSEFTLPKDPETPLIMVGPGTGVAPFRGFVQARKQLKEQGQSLGEAHLYFGCRSPHEDYLYQEELENAQSEGIITLHTAFSRMPNQPKTYVQHVMEQDGKKLIELLDQGAHFYICGDGSQMAPAVEATLMKSYADVHQVSEADARLWLQQLEEKGRYAKDVWAG
modifications: cytochrome P450NADPH-P-450 reductase precursor, cytochrome P450 (BM3), CYP102A1
notes: 9-10A TS + F87V, L75A, I263A, T268A, L437A
Turning to B1, the “ee (cis)” value in data set [1] ((R,S)-(S,R), chiral β-CDX GC) is reported as −56. Also, the de in data set [1] (diastereomeric excess = ([cis] − [trans])/([cis] + [trans])) was −46. Further, the Absolute activity in data set [1] (sum of the area of the cyclopropane peaks over the area of the internal standard) stood at 0.1412. Further, the double insertion product result in data set [2] (GC-MS and 1H NMR, milligram-scale reactions) is “No double insertion product was observed”. The “isolated yield of 4.3” value in data set [2] (milligram scale, 25 mM EDA, 25 mM aniline, 25 μM protein, 25 mM Na2S2O4, no organic cosolvent) is 65%. The molecule also showed a TTn in data set [2] (protein 10 uM, EDA 8.5 mM, aniline 20 mM, Na2S2O4 10 mM, 12 h) of 473. In data set [2] (protein 10 uM, EDA 8.5 mM, aniline 20 mM, Na2S2O4 10 mM, 12 h, product 4.3), the “% Yield” value amounted to 47%. Besides, the “yield of product 4.5” value in data set [3] is listed as 26%. Moreover, in data set [4], the production of lidocaine entry was “Production of lidocaine was observed”.

B2: BM3-CIS-T438S: BM3-CIS + T438S (protein, listed as Bacillus megaterium)
chain: B1 chain with A75L, A263I, A437L, T438S
modifications: cytochrome P450NADPH-P-450 reductase precursor, cytochrome P450 (BM3), CYP102A1
In the case of B2, in data set [5], the enantioselectivity was determined as 7% and the “yield of 4.5” value is 17%.
